Laboratory results: patent US20240327525A1 (VIB VZW, published 2024)
Where two headings read alike, the source gives them in different places. One block for each binder: values may come before it.

Key:
[1] = target: T1, human CI-M6PR domain1-3His6 (human, UniProt P11717 41-467); assay: BLI at pH 7.4
T1 construct: Recombinant, made in HEK293 cells; Biotinylated with NHS-PEG4-biotin for BLI; unlabelled in SEC-MALLS and crystallisation; also called CI-M6PR hDom1-3His6; hDom1-3His6

[2] = target: T1, human CI-M6PR domain1-3His6; assay: BLI, biotinylated antigen on SA tips, global 1:1 fit, association at pH 7.4
Experimental: (§1) Biotinylated human domain₁₋₃His₆ was immobilized on Streptavidin SA biosensors (Sartorius) to a signal of 0.6 nm. […] Between runs, biosensors were regenerated by three times 10 s exposure to regeneration buffer (10 mM glycine pH 3). The degree of association and dissociation was measured in δ nm over time(s).
as §1, with “FIGS. 10A-10E. […] BLI was performed on an Octet Red96 (FortéBio) instrument in kinetics buffer (0.2 M Na₂HPO₄, 0.1 M Na⁺citrate, 0.01% bovine serum albumin, 0.002% Tween-20). Biotinylated” for “Biotinylated”, “assays,” for “runs,”
(§2) After loading, the tips were incubated with VHHs serially diluted in pH 7.4 kinetic buffer during the association phase and dissociation was performed at pH 7.4, pH 6.5, pH 6.0, pH 5.5 and pH 5.0. All biosensor tips were then regenerated before analysis of the subsequent VHH. Table 3 summarizes the kinetic parameters retrieved after processing and curve fitting of the BLI measurements.

[3] = target: T1, human CI-M6PR domain1-3His6; assay: BLI, biotinylated antigen on SA tips, global 1:1 fit, dissociation at pH 7.4
Experimental: as §1
as §1, with “FIGS. 10A-10E. […] BLI was performed on an Octet Red96 (FortéBio) instrument in kinetics buffer (0.2 M Na₂HPO₄, 0.1 M Na⁺citrate, 0.01% bovine serum albumin, 0.002% Tween-20). Biotinylated” for “Biotinylated”, “assays,” for “runs,”
as §2

[4] = target: T1, human CI-M6PR domain1-3His6; assay: BLI, association pH 7.4, dissociation at pH 5.5, mean of local fits
Experimental: as §1, with “FIGS. 9A-9E. […] BLI was performed on an Octet Red96 (FortéBio) instrument in kinetics buffer (0.2 M Na₂HPO₄, 0.1 M Na⁺citrate, 0.01% bovine serum albumin, 0.002% Tween-20). Biotinylated” for “Biotinylated”
as §1, with “FIGS. 10A-10E. […] BLI was performed on an Octet Red96 (FortéBio) instrument in kinetics buffer (0.2 M Na₂HPO₄, 0.1 M Na⁺citrate, 0.01% bovine serum albumin, 0.002% Tween-20). Biotinylated” for “Biotinylated”, “assays,” for “runs,”

[5] = target: T1, human CI-M6PR domain1-3His6; assay: BLI, association pH 7.4, dissociation at pH 5.0, mean of local fits
Experimental: as §1, with “FIGS. 9A-9E. […] BLI was performed on an Octet Red96 (FortéBio) instrument in kinetics buffer (0.2 M Na₂HPO₄, 0.1 M Na⁺citrate, 0.01% bovine serum albumin, 0.002% Tween-20). Biotinylated” for “Biotinylated”
as §1, with “FIGS. 10A-10E. […] BLI was performed on an Octet Red96 (FortéBio) instrument in kinetics buffer (0.2 M Na₂HPO₄, 0.1 M Na⁺citrate, 0.01% bovine serum albumin, 0.002% Tween-20). Biotinylated” for “Biotinylated”, “assays,” for “runs,”

[6] = target: T1, human CI-M6PR domain1-3His6; assay: BLI, association pH 7.4, dissociation at pH 6.0, mean of local fits
Experimental: as §1, with “FIGS. 9A-9E. […] BLI was performed on an Octet Red96 (FortéBio) instrument in kinetics buffer (0.2 M Na₂HPO₄, 0.1 M Na⁺citrate, 0.01% bovine serum albumin, 0.002% Tween-20). Biotinylated” for “Biotinylated”
as §1, with “FIGS. 10A-10E. […] BLI was performed on an Octet Red96 (FortéBio) instrument in kinetics buffer (0.2 M Na₂HPO₄, 0.1 M Na⁺citrate, 0.01% bovine serum albumin, 0.002% Tween-20). Biotinylated” for “Biotinylated”, “assays,” for “runs,”

[7] = target: human cation-independent mannose-6-phosphate receptor on cells (human, UniProt P11717 41-2491); assay: cell-based or functional assay
[8] = target: T1, human CI-M6PR domain1-3His6; assay: BLI, association pH 7.4, dissociation at pH 6.5, mean of local fits
Experimental: as §1, with “FIGS. 9A-9E. […] BLI was performed on an Octet Red96 (FortéBio) instrument in kinetics buffer (0.2 M Na₂HPO₄, 0.1 M Na⁺citrate, 0.01% bovine serum albumin, 0.002% Tween-20). Biotinylated” for “Biotinylated”
as §1, with “FIGS. 10A-10E. […] BLI was performed on an Octet Red96 (FortéBio) instrument in kinetics buffer (0.2 M Na₂HPO₄, 0.1 M Na⁺citrate, 0.01% bovine serum albumin, 0.002% Tween-20). Biotinylated” for “Biotinylated”, “assays,” for “runs,”

[9] = target: T1, human CI-M6PR domain1-3His6; assay: BLI, biotinylated antigen on SA tips, global 1:1 fit, dissociation at pH 7.4; remark: listed apart in the source
Experimental: (§3) For VHH 1H11 (SEQ ID NO: 24) and VHH 1H52 (SEQ ID NO: 25), a BLI experiment was performed in which the human CI-M6PR domain₁₋₃His₆ was biotinylated and coupled to streptavidin biosensor tips. After loading, the tips were incubated with VHHs serially diluted in pH 7.4 kinetic buffer during the association phase and dissociation was performed at pH 7.4, pH 6.5, pH 6.0, pH 5.5 and pH 5.0. All biosensor tips were then regenerated before analysis of the subsequent VHH. […] When both association and dissociation were performed at pH 7.4, a global fit was performed according to the 1:1 binding model of which the resulting affinity constants (KD), association (kₒₙ) and dissociation rate constants (koff) are shown. For measurements with association at pH 7.4 and dissociation at pH 6.5, 6.0, 5.5 and 5.0, the depicted dissociation rate constants are an average of the parameters determined by local curve fitting of the dissociation of 200, 100 and 50 nM VHH. Association-dissociation curves for VHH1H11 and VHH1H52 are shown in FIG. 19 and FIG. 20, respectively.

[10] = target: T1, human CI-M6PR domain1-3His6; assay: BLI, association pH 7.4, dissociation at pH 6.0, mean of local fits; remark: listed apart in the source
Experimental: (§4) FIG. 19-20. Association-dissociation graphs of anti-CI-M6PR VHH1H11 and VHH1H52, resp. analyzed using BLI. BLI was performed on an Octet Red96 (FortéBio) instrument in kinetics buffer (0.2 M Na₂HPO₄, 0.1 M Na⁺citrate, 0.01% bovine serum albumin, 0.002% Tween-20). Biotinylated human domain₁₋₃His₆ was immobilized on Streptavidin SA biosensors (Sartorius) to a signal of 0.6 nm. A 120 s association phase in VHH 1H11 (FIG. 19) or VHH 1H52 (FIG. 20) serially diluted (0-200 nM) in pH 7.4 phosphate citrate buffer, was followed by 420 s of dissociation in phosphate buffer of either pH 7.4, 6.5, 6.0, 5.5 or 5.0. Between assays, biosensors were regenerated by three times 10 s exposure to regeneration buffer (10 mM glycine pH 3). The degree of association and dissociation was measured in δ nm over time(s).
(§5) For VHH 1H11 (SEQ ID NO: 24) and VHH 1H52 (SEQ ID NO: 25), a BLI experiment was performed in which the human CI-M6PR domain₁₋₃His₆ was biotinylated and coupled to streptavidin biosensor tips. […] For measurements with association at pH 7.4 and dissociation at pH 6.5, 6.0, 5.5 and 5.0, the depicted dissociation rate constants are an average of the parameters determined by local curve fitting of the dissociation of 200, 100 and 50 nM VHH. […]

[11] = target: T1, human CI-M6PR domain1-3His6; assay: BLI, association pH 7.4, dissociation at pH 5.5, mean of local fits; remark: listed apart in the source
Experimental: as §4, §5

[12] = target: T1, human CI-M6PR domain1-3His6; assay: BLI, biotinylated antigen on SA tips, global 1:1 fit, association at pH 7.4; remark: listed apart in the source
Experimental: as §3

[13] = target: T1, human CI-M6PR domain1-3His6; assay: BLI, association pH 7.4, dissociation at pH 6.5, mean of local fits; remark: listed apart in the source
Experimental: as §3

[14] = target: T1, human CI-M6PR domain1-3His6; assay: BLI, association pH 7.4, dissociation at pH 5.0, mean of local fits; remark: listed apart in the source
Experimental: as §4, §5

[15] = target: T1, human CI-M6PR domain1-3His6; assay: not stated in the sentence (pH-dependent dissociation)

Kd [9]: 4.9 nM
koff [9]: 0.0025 s⁻¹
koff [10]: 0.0051 s⁻¹
koff [11]: 0.0063 s⁻¹
kon [12]: 510000 M⁻¹ s⁻¹
koff [13]: 0.0048 s⁻¹
koff [14]: 0.0083 s⁻¹
B2: anti-CI-M6PR VHH 1H11 (VHH)
VHH: QVQLQESGGGLVQPGGSLRLSCAASGIIFSDNRMDWYRQAPGKQREWVATLASYGWKTYADSVKDRFTISRDNAKNTVNLYMNSLQPEDTAVYYCNSGQYWGQGTQVTVSS
notes: Made in E. coli (pHEN6c), IMAC purified; tag not specified

Kd [9]: 31 nM
koff [9]: 0.032 s⁻¹
koff [10]: 0.03 s⁻¹
koff [11]: 0.051 s⁻¹
kon [12]: 1e+06 M⁻¹ s⁻¹
koff [13]: 0.067 s⁻¹
koff [14]: 0.2 s⁻¹
B4: anti-CI-M6PR VHH 1H52 (VHH)
VHH: QVQLQESGGGLVQPGGSLRLSCTASGFTWDSYVIGWFRQAPGKGREGVSCLDVDDGSIYYHDSAKGRFSISRDNAKNTVYLQMNSLKPEDTAVYYCAAVNRASMRFRRCLQVLRYDYWGQGTQVTVSS
notes: as for B2

The next lines start with the binder.

B1: anti-CI-M6PR VHH8 (VHH)
VHH: QVQLQESGGGLVQAGGSLRLSCEASGRTFNTYNWGWFRQAPGKEREFVAAIRWSSSKTSYADSVKGRFTISRDNAKNTIYLQMNSLKPEDTAVYYCAASIVDFTTNPSHFGSWGQGTQVTVSS
notes: Purified by IMAC, so tagged; Labelled with Alexa Fluor 488 (NHS ester) in the imaging experiments
Kd [1]: ~3.35 nM
kon [2]: 610000 M⁻¹ s⁻¹
Kd [3]: 0.534 nM
koff [3]: 0.00032 s⁻¹
koff [4]: 0.0034 s⁻¹
koff [5]: 0.023 s⁻¹
koff [6]: 0.00091 s⁻¹
internalisation rate (live-cell imaging of AF488-VHH on MCF7 cells) [7]: 673000 summed AF-voxels/minute
koff [8]: 0.00084 s⁻¹

B3: anti-CI-M6PR VHH7 (VHH)
VHH: QVQLQESGGGLVQPGGSLRLSCAASGIIFSDNRMDWYRQAPGKQREWVATLASYGWKTYADSVKGRFTISRDNTKNTVYLRMNSLKPEDTAVYYCKASSPVLNDIWGQGTQVTVSS
notes: as for B1
kon [2]: 540000 M⁻¹ s⁻¹
Kd [3]: 10.1 nM
koff [3]: 0.0055 s⁻¹
fold higher dissociation rate at pH 6.0 versus pH 7.4 [15]: 5 fold
koff [4]: 0.013 s⁻¹
koff [5]: 0.017 s⁻¹
koff [6]: 0.0099 s⁻¹
internalisation rate (live-cell imaging of AF488-VHH on MCF7 cells) [7]: 1.26e+06 summed AF-voxels/minute
koff [8]: 0.0091 s⁻¹
